B1: XA8633: Mor1-specific VHH, SEQ ID NO: 1, Profile I, candidate G-protein mimicking, active state stabilizing (protein, listed as Lama glama)
VHH: QVQLVESGGGLVRPGGSRRLSCVDSERTSYPMGWFRRAPGKEREFVASITWSGIDPTYADSVADRFTISRDVANNTLYLQMNSLKHEDTAVYYCAARAPVGQSSSPYDYDYWGQGTQVTVSSAAAHHHHHHGAAEQKLISEEDLNGAA
B2: XA8639: Mor1-specific VHH, SEQ ID NO: 2, Profile I, G-protein mimetic (protein, listed as Lama glama)
VHH: QVQLVESGGGLVRPGGSLRLSCVDSERTSYPMGWFRRAPGKEREFVASITWSGIDPTYADSVADRFTTSRDVANNTLYLQMNSLKHEDTAVYYCAARAPVGQSSSPYDYDYWGQGTQVTVSSAAAHHHHHHGAAEQKLISEEDLNGAA
B3: XA8641: Mor1-specific VHH, SEQ ID NO: 3, Profile I (protein, listed as Lama glama)
VHH: QVQLVESGGGLVRPGGSLRLSCVDSGRTSYPMGWFRRAPGKEREFVASITWSGIDPTYADSVADRFTISRDVANNTLYLQMNSLKHEDTAVYYCAARAPVGQSSSPYDYDYWGQGTQVTVSSAAAHHHHHHGAAEQKLISEEDLNGAA
B4: XA8643: Mor1-specific VHH, SEQ ID NO: 4, Profile I (protein, listed as Lama glama)
VHH: QVQLVESGGGLVRPGGSLRLSCVDSERTSYPMGWFRRAPGKEREFVASITWSGIDPTYADSVADRFTISRDVANNTLYLQMNSLKHEDTAVYYCAARAPVGQSSSPYDYDYWGQGTQVTVSSAAAHHHHHHGAAEQKLISEEDLNGAA
B5: XA8635: Mor1-specific VHH, SEQ ID NO: 5, Profile II, binds extracellular part and orthosteric pocket (protein, listed as Lama glama)
VHH: QVQLVESGGGLVQAGGSLRLSCAASGSISSISTMGWYRQAPGNERELVAAITSGGSTNYADSVKGRFTISRDNAKNTVYLQMNSLKPEDTAVYYCNFKYYSGSYFYKSEYDYWGQGTQVTVSSAAAHHHHHHGAAEQKLISEEDLNGAA
B6: XA8727: Mor1-specific VHH, SEQ ID NO: 6, Profile III, intracellular binder (protein, listed as Lama glama)
VHH: QVQLVESGGGLVQAGGSLRLSCAASGFTFDDYAIAWFRQAPGKEREGVSCISSSDGSTYYADSVKGRFTISNDNAKNTVYLQMNSLKPEDTAVYYCAADLSRSCGRGYRYLEVWGQGTQVTVSSAAAHHHHHHGAAEQKLISEEDLNGAA
B7: XA9644: Profile III VHH of a new sequence family, SEQ ID NO: 74 (protein, listed as Lama glama)
VHH: QVQLVESGGGLVRPGGSLRLSCVDSERIFSISAMGWYRQAPGKQRELVATITSGGTTNYADSVKGRFTISGDTAKNMVYLQMSSLKPEDTAVYYCAADMEVWDYTDGDDDDYWGQGTQVTVSSAAAHHHHHHGAAEQKLISEEDLNGAA
B8: bivalent XA8635: genetic head to tail fusion of XA8635, separated by a 9GS linker, SEQ ID NO: 49 (protein)
chain: QVQLVESGGGLVQAGGSLRLSCAASGSISSISTMGWYRQAPGNERELVAAITSGGSTNYADSVKGRFTISRDNAKNTVYLQMNSLKPEDTAVYYCNFKYYSGSYFYKSEYDYWGQGTQVTVSSGGGGSGGGSQVQLQESGGGLVQAGGSLRLSCAASGSISSISTMGWYRQAPGNERELVAAITSGGSTNYADSVKGRFTISRDNAKNTVYLQMNSLKPEDTAVYYCNFKYYSGSYFYKSEYDYWGQGTQVTVSSAAAEQKLISEEDLNGAAHHHHHH

Columns and labels:
[1] = tested on: β-arrestin1 or β-arrestin2; conditions: cell culture assays; cited from earlier work
[2] = tested on: inflammatory pain model in rat; conditions: cited from earlier work
[3] = molecular target: T1, Delta mMor1 (Mus musculus, UniProt P42866, INS358LEVLFQGP/INS51ENLYFQ); test: Flow cytometry binding of VHHs to Delta mMor1/Sf9 cells with or without Mor1 ligand; conditions: for Side of Mor1 bound (intact versus permeable Sf9 cells, Topro3 gating) / Flow cytometry binding profile on Delta mMor1/Sf9 cells: periplasmic extracts; for Flow cytometry binding profile on Delta mMor1/Sf9 cells: no ligand, 20 μM Dmt1-Dalda or 20 μM naloxone, mock GPCR Sf9 as control
T1 construct: expressed in transfected cells; host or cells: Sf9 insect cells, baculovirus-infected (BestBac)

[4] = molecular target: T2, truncDelta mMor1 (Mus musculus, UniProt P42866); test: ELISA of VHH binding to truncDelta mMor1 reconstituted in liposomes; conditions: periplasmic extracts, 10 μM Dmt1-Dalda
T2 construct: N- and C-termini are removed by enzymatic proteolysis, resulting in truncDelta mMor1; TEV cleavage site ENLYFQ (after G51 of P42866) (internal); made in house; host or cells: Sf9 insect cells (baculovirus); purified and reconstituted into lipid vesicles

[5] = molecular target: T3, Mor1 (Mus musculus, UniProt P42866); type: binding
[6] = molecular target: T4, WT human Mor1 (Homo sapiens, UniProt P35372); test: Radioligand displacement by XA8635 on WT human hMor1/CHO membranes; type: binding; conditions: 5 μg WT human hMor1/CHO membranes, 1 nM radioligand, no agonist
T4 construct: purchased Perkin Elmer ES-542-M400UA; host or cells: CHO cells overexpressing wild-type human Mor1 (membranes)
T4 sequence (P35372 whole entry): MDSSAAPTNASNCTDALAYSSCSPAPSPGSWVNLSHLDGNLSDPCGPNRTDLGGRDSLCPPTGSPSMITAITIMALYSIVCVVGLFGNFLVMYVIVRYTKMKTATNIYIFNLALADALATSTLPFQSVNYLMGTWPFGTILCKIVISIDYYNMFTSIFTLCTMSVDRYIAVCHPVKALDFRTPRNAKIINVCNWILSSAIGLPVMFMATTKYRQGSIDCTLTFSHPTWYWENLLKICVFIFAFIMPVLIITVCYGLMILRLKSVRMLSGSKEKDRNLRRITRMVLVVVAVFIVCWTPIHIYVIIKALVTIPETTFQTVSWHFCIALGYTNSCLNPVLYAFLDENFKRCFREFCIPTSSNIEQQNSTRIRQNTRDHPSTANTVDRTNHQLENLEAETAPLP
Procedure: (§1) A radioligand competition assay was performed as described in Example 6 with minor modifications: 5 μg of WT human hMor1/CHO membranes or 7 μg of Delta mMor1/Sf9 membranes were incubated with a concentration range of purified XA8635 and 1 nM of the radioligand (no agonist was added). The mixture was incubated for 1 hour at RT and after washing, filter bound radioligand was measured.

[7] = molecular target: T1, Delta mMor1; test: Radioligand displacement by XA8635 on Delta mMor1/Sf9 membranes; type: binding; conditions: 7 μg Delta mMor1/Sf9 membranes, 1 nM radioligand, no agonist
Procedure: as §1

[8] = molecular target: T5, human Mor1 (Homo sapiens, UniProt P35372); test: Flow cytometry binding of mono- and bivalent XA8635 to Mor overexpressing CHO cells; conditions: for Binding to Mor overexpressing CHO cells vs parental non-transfected CHO cells: absence of any Mor1 ligand
T5 construct: expressed in transfected cells; host or cells: CHO cells
T5 sequence (P35372 whole entry): as above

[9] = molecular target: T3, Mor1; test: Affinity of XA8635 for ligand-free Mor1; conditions: read-out: Ki of binding to the receptor

Row | Molecule | Side of Mor1 bound (intact versus permeable Sf9 cells, Topro3 gating) [3] | Flow cytometry binding profile on Delta mMor1/Sf9 cells [3] | Binding to truncDelta mMor1 liposomes in ELISA [4] | also measured
1 | COC(=O)[C@@H]1C[C@H](OC(=O)c2ccccc2)C(=O)[C@H]2[C@@]1(C)CC[C@H]1C(=O)O[C@H](c3ccoc3)C[C@]21C [herkinorin] |  |  |  | Recruitment of β-arrestin1 or β-arrestin2 [1]: does not recruit β-arrestin1 or β-arrestin2; Antinociception in morphine-tolerant rats ([2]; morphine-tolerant rats): produces antinociception in morphine-tolerant rats; Formalin-induced flinching ([2]; rat, 10 mg/kg, i.pl., reversed by naloxone): reduces formalin-induced flinching to the same degree as morphine; Antinociceptive tolerance ([2]; repeated treatment over a 5-day period): does not develop
2 | B1 | intracellular epitopes | Profile I | confirmed to bind Mor1 in ELISA | Fluorescence profile of purified VHH compared to the one obtained with periplasm ([3]; 1 μM purified VHH): identical fluorescence profile
3 | B2 | intracellular epitopes | Profile I | confirmed to bind Mor1 in ELISA | Enhancement of affinity for BU72 [5]: 176 fold
4 | B3 | intracellular epitopes | Profile I | confirmed to bind Mor1 in ELISA | 
5 | B4 | intracellular epitopes | Profile I | confirmed to bind Mor1 in ELISA | 
6 | B5 | extracellular part of the receptor | Profile II | confirmed to bind Mor1 in ELISA | Fluorescence profile of purified VHH compared to the one obtained with periplasm ([3]; 1 μM purified VHH): identical fluorescence profile; Binding to Sf9 cells overexpressing Mor1 in presence of Mor1 ligand (agonist or antagonist) ([3]; 1 μM purified VHH, intact and permeable cells): loses its ability to specifically bind; Radioligand displacement [6]: dose-dependent increase in radioligand displacement; Radioligand displacement [7]: dose-dependent increase in radioligand displacement; Binding to Mor overexpressing CHO cells vs parental non-transfected CHO cells [8]: dose-dependent specific binding; Ki [9]: ~12 nM
7 | B6 | intracellular part of Mor1 | Profile III | confirmed to bind Mor1 in ELISA | 
8 | B7 |  | Profile III |  | 
9 | B8 |  |  |  | Increased fluorescence versus monovalent XA8635 ([8]; 1 μM): approximately 34%; Binding to Mor overexpressing CHO cells vs parental non-transfected CHO cells [8]: dose-dependent specific binding
